IntAct's records for PubMed 25083872

B1: Vesicle-associated membrane protein-associated protein SCS2 (Saccharomyces cerevisiae), P40075 (parent)
chain: MSAVEISPDVLVYKSPLTEQSTEYASISNNSDQTIAFKVKTTAPKFYCVRPNAAVVAPGETIQVQVIFLGLTEEPAADFKCRDKFLVITLPSPYDLNGKAVADVWSDLEAEFKQQAISKKIKVKYLISPDVHPAQNQNIQENKETVEPVVQDSEPKEVPAVVNEKEVPAEPETQPPVQVKKEEVPPVVQKTVPHENEKQTSNSTPAPQNQIKEAATVPAENESSSMGIFILVALLILVLGWFYR
partner: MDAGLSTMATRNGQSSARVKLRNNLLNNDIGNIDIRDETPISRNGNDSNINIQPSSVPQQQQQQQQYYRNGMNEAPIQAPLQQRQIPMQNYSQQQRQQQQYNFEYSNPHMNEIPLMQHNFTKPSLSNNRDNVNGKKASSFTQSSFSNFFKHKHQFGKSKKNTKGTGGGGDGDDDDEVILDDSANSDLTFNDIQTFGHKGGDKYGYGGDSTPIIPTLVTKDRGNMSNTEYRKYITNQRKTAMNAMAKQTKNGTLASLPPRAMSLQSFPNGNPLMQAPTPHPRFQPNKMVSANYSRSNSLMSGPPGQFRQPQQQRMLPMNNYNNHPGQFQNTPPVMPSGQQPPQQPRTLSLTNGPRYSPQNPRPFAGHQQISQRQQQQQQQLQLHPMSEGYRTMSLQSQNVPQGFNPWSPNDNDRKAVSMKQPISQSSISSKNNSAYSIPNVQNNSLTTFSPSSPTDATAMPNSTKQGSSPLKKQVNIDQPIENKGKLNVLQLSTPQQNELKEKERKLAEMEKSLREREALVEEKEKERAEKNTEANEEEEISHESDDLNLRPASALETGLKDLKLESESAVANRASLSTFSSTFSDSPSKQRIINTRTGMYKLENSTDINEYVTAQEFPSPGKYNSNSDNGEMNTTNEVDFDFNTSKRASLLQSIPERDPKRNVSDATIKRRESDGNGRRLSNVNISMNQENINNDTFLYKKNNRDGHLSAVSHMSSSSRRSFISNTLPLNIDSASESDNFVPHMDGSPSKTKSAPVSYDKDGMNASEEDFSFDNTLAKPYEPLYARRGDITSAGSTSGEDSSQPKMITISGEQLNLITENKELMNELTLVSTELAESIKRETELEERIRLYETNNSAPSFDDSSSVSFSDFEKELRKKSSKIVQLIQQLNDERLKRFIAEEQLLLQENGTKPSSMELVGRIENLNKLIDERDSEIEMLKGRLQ

Variants of: B1
Settings: with ym11_yeast ym11, P39523

Q: Which “effect of a mutation on the interaction” value does the source give for MSAVEISPDVLVYKSPLTEQSTEYASISNNSDQTIAFKVKTAAPKFYCVRPNAAVVAPGETIQVQVIFLGLTEEPAADFKCRDKFLVITLPSPYDLNGKAVADVWSDLEAEFKQQAISKKIKVKYLISPDVHPAQNQNIQENKETVEPVVQDSEPKEVPAVVNEKEVPAEPETQPPVQVKKEEVPPVVQKTVPHENEKQTSNSTPAPQNQIKEAATVPAENESSSMGIFILVALLILVLGWFYR [T42A] here?
A: disrupting interaction strength
